Results reported in paper PMC13056530.

Target: RorSlfn5, Schlafen nuclease fused to an Ig-like domain, from Raoultella ornithinolytica (Raoultella ornithinolytica)
Test: SEC-MALS

RorSlfn5, Schlafen nuclease fused to an Ig-like domain, from Raoultella ornithinolytica (enzyme)
stoichiometry N: 6
